Experiment: soluble on expression in E. coli; label from the status in PepcDB or PDB records

Row | Sequence | soluble on expression in E. coli
1 | MHHHHHHSSGVDLGTENLYFQSMNGPEDLPKSYDYDLIIIGGGSGGLAAAKEAAQYGKKVMVLDFVTPTPLGTRWGLGGTCVNVGCIPKKLMHQAALLGQALQDSRNYGWKVEETVKHDWDRMIEAVQNHIGSLNWGYRVALREKKVVYENAYGQFIGPHRIKATNNKGKEKIYSAERFLIATGERPRYLGIPGDKEYCISSDDLFSLPYCPGKTLVVGASYVALECAGFLAGIGLDVTVMVRSILLRGFDQDMANKIGEHMEEHGIKFIRQFVPIKVEQIEAGTPGRLRVVAQSTNSEEIIEGEYNTVMLAIGRDACTRKIGLETVGVKINEKTGKIPVTDEEQTNVPYIYAIGDILEDKVELTPVAIQAGRLLAQRLYAGSTVKCDYENVPTTVFTPLEYGACGLSEEKAVEKFGEENIEVYHSYFWPLEWTIPSRDNNKCYAKIICNTKDNERVVGFHVLGPNAGEVTQGFAAALKCGLTKKQLDSTIGIHPVCAEVFTTLSVTKRSGASILQAGCGG | soluble
2 | MGSDKIHHHHHHMKIGVFSVLFYDKNFEDMLDYVAESGLDMIEVGTGGNPGDKFCKLDELLENEDKRQAFMKSITDRGLQISGFSCHNNPISPDPIEAKEADETLRKTIRLANLLDVPVVNTFSGIAGSDDTAKKPNWPVTPWPTAYSEIYDYQWNEKLIPYWQDLAEFAKEQDVKIAIELHAGFLVHTPYTMLKLREATNEYIGANLDPSHLWWQGIDPIAAIRILGQANAIHHFHAKDTYINQENVNMYGLTDMQPYGNVATRAWTFRTVGYGHSPYVWADIISQLIINGYDYVLSIEHEDPIMSVEEGFQKACQTLKSVNIYDKPADMWWA | not soluble
3 | MSLQADFNRPVLAVDTGTSRLSLALRADGETRLFHQEVGSRQSELILPEIRTLFRDAGITAADLGAVVYAQGPGAFTGLRIGIGVAQGLATPFDTPLIGVPSLDAAASLPPPQSCILAATDARMGEVFYAWFDTLNCHRLSDYQVGRAADIRLPEGCAFSDGIGSAFALEEAPPFSGRPDMPTAADFLALAAKGGYPAVHAAHAGLLYVRNKIALTAKEQAERRAEGHHHHHH | soluble
4 | MGSDKIHHHHHHMATENPPIYMVGGSKGGVGKSFVTLALVDYLRRMEVNVVLVETDTSNPDVMKAVHDEIECGSCDLDDVSGWIDFVNFCDLHPDATVVVNTAARSQAGVAQYGGTLASTLDELARRLVVLWVINRQRDSLELLLRFGATFPNAITHVVRNGYFGSPDKFTLYRDSQLRNAVEAQGQSLDFPDLADRVADELRSQRLSVSKAAEMMHMGERAELLRWRAVCGTMFARVTPHA | not soluble
5 | MVSKLVKIEPKFKLIEKDGKGEYFIAKYNILPENLLVYGPEQELKKINTIQTNVKEFDTRTLFVSDYLEVVPPNPLVMFEKSHVVVNIYLNKLEHHHHHH | not soluble
6 | EYVYIMTPYLILDSELEHAIQFAAERGVDVRIIMPGIPDKPIPYALAKTYYQALTKSGVKIYEYTLGFVHSKIFLSDNTKAVVGTINLDYRSLYHHFECAVYLYKVDAIQDIYRDYMDTLNKSRLVSLKDINNI | not soluble
7 | MKLVICIVQDDDAGELIDVLTDKGLRVTKLATTGGFLKAGNTTLMIGVEEKAVDGVIETIEDVCKTRQQVVTSPSPVAGSTGVYVPYPIDVEVGGATIFVVDVDKFIKI | not soluble
8 | GLVLPHTEFQPAPKQDSSPHLTSQRPVDMVQLLKKYPIVWQGLLALKNDTAAVQLHFVSGNNVLAHRSLPLSEGGPPLRIAQRMRLEATQLEGVARRMTVETDYCLLLALPCGRDQEDVVSQTESLKAAFITYLQAKQAAGIINVPNPGSNQPAYVLQIFPPCEFSESHLSRLAPDLLASISNISPHLMIVIASV | soluble
9 | MGERADTFLAHFNRIEKWMRERLNNPVNMGFSEMTRRLSRKEKGQIAQFEEDLLQMAQLRNAIVHERIADDFVIAEPNEWAVQRIETIEQALTKPEKVVPKFAKRVTAFEITTSLETLLTIIAKKQYSQFPIYEKGVFKGLITVRGIGVWFAIESTKGEVHIANRTVRELLASNYKRSNYQFVSIEATVFEVEQMFREQPRLEAVLISKSGHPNGELVGIVRPRDLASIHREKE | not soluble
10 | MAHHHHHHMKINNNEKSYILYQCLKLLIRLHDAGLSHLDLTPENILISDNYEMRLCDLSKSTPIYTYNLRHIKDVNRLYLFESCEPTIAKGAYMPPECWKIYWKYDTMKIKNPLKDLKNITDQEKRKQFYFDVSSADKFMLGVFFFWIWTNGNLWKCSDPLQDEDFFYFVKCDMNFDKFELTRKWPTDLKNIIKVGGAEQRRSG | not soluble
11 | MGSDKIHHHHHHMFTQATFDFLAALEANNERDWFKANQHTYEDKVRTPALALIEAAAPAIVALSPRLTAVAKKVGGSLMRPQRDTRFGHDKRPYKTNVGIQFRHFQGKDVHAPGLYLHIANDGCFVAAGIWHPESKALNAIRSCIDENPATYQKALKALTDSGFAMDGDSLSRPPRGYDKRHPLIDELKRKDFIAVKSLTNHEVLQPDFASRLVAEFEHCQQLMRYLCFALELDY | not soluble
12 | MAHHHHHHMTDTTKGALKRSNTLFLSDAEQFVFDFGGSAGGRAVSPGSSHGSGGQPGEGDGEKGIEETDLANGRTGVVTPFSERERTAPVAPLDAEEVQRYFDKALKGGRRILLENVPLDEAIEKFQLGLRRYEEWLCNQANSRNRGDSSKSRGDPLNEGYRGKPGDVARDAKDRKRPRL | not soluble
13 | MEEEILSFVSIQSHVSSAGEKPIHVLDENPKFSRLHPSPSNIDSGEDSTSINKSNMESYGFSPVKIIEALIRETTAQGNVNMQRKSLFFPTQISDLFPAILNSKRKTG | soluble
14 | MGSDKIHHHHHHMALVALPGGGAVDPAFWSVQAAEDFEQEIVDQYALAMAAAGLSDSHIRNTRSTIIEFARSVTGPLWAATCQDADRFLAEQRRLGRSVSTRAGKAGTLALFYEFMISRYQGRIHRLTGVLVEQPIDEFNRQAGASLGKVRVPPSDAEIDAFFTCWRHSIPQARKYLPAARDYFAASLWRRLGLRITETVMLDIRDWRPDLGGFGKLHVRYGKGAHGRGPKPRLVPAINGAAELIDWWLGDVRHRYGEDWADPDAPLLPSERFDRELGRCGRVGGNALRRSLGLQVDQWLPAWSGRMTPHVLRHYCASSLYGAGMDIKALQELLGHQWLSTTSGYIHVRSEHVEQAWKNANERVESRFATTQKEG | not soluble
15 | MSLNNIMKVVIIGAGPAGVYSALTLSKHAKVTLIEREEKLGGTCVLYGCIPTKSILSQLIISRQASNMSLNTLREYALTSINTISKSLEHLLNSHGIEVIHANGFLRSSMVHASNTSLAADKVLVSTGTRRERLGKVKFTEDLAYTNEDYNKVVIVGGDAGGIELGWMMKKLGKEVHLIDKNDLLLQNIDRTLSEIVTNFLSQIGIKLYLGKKVSKIDETSVTLEDNQKISGDAVFVTFGRKPNIEGFEEIPHEKYIYVDEYLRTQIPNIYAAGDIIGTFTAHEAIYAGIIAAKNMLGEKREFIVEGIPKVIYIYPQIAYVGTTNGNCVTFNTLNLTRTIVERESEGFLKICERDNRVIGAVAFMPYAEDVISLISVLIRYQISLKDTIDLVMPHPSYLEAITEALNMLQSKGEGHHHHHH | not soluble
16 | MHHHHHHSSGVDLGTENLYFQSMAKSAEVKLAIFGRAGVGKSALVVRFLTKRFIWEYDPTLESTYRHQATIDDEVVSMEILDTAGQEDTIQREGHMRWGEGFVLVYDITDRGSFEEVLPLKNILDEIKKPKNVTLILVGNKADLDHSRQVSTEEGEKLATELACAFYECSACTGEGNITEIFYELCREVRRRRMVQ | soluble
17 | PTIFEERHLKYISQLGKGNFGSVELCRYDPLGDNTGALVAVKQLQHSGPDQQRDFQREIQILKALHSDFIVKYRGVSYGPGRPELRLVMEYLPSGCLRDFLQRHRARLDASRLLLYSSQICKGMEYLGSRRCVHRDLAARNILVESEAHVKIADFGLAKLLPLDKDYYVVREPGQSPIFWYAPESLSDNIFSRQSDVWSFGVVLYELFTYCDKSCSPSAEFLRMMGCERDVPALCRLLELLEEGQRLPAPPACPAEVHELMKLCWAPSPQDRPSFSALGPQLDMLWSGSR | soluble

Reference: the DeepSol protein solubility set
